From the RNAGym collection of RNA variant scans (doi:10.1073/pnas.2313332121)
Fewer inactive variants are shown than the library holds.

B1: TPR 5TU (parent)
chain: GGAUCUUCUCGAUCUAACAAAAAAGACAAAUCUGCCACAAAGCUUGAGAGCAUCUUCGGAUGCAGAGGCGGCAGCCUUCGGUGGCGCGAUAGCGCCAACGUUCUCAACUAUGACACGCAAAACGCGUGCUCCGUUGAAUGGAGUUUAUCAUG

Variants of: B1
Experiment: polymerase ribozyme fitness, log enrichment relative to wild type (log ratio); higher = more active; in vitro selection for triplet polymerase activity
How it was run: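 One round of in vitro selection, in triplicate, was applied to PCR-built, transcribed mutant libraries of each subunit of a heterodimeric triplet polymerase ribozyme. The steps were annealing with a biotinylated primer, partner subunit and triplets, incubation frozen at −7 °C, gel excision of extended constructs, streptavidin-bead capture and RT-PCR. Fitness is the logarithm, base 2, of genotype enrichment over wild-type enrichment from inverse-variance-weighted replicate averages of Illumina-sequenced inputs and outputs, keeping genotypes with ≥10 input reads and ≥1 read per output.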

Row | Variant | polymerase ribozyme fitness (log ratio)
1 | GGAUCUUCUCGAUCUAACAAAAAAGACAAAUCUGCCACAAAGCUUGAGAGCAUCUUCGGAUGCAGAGGCGGCAGCCUUCGGUGGCGCGAUAGCGCCAAAGUUCUCAACUAUGACACGCAAAACGCGUGCUGCGUUGAAUGGAGUUUAUCAUG [C99A C131G] | ≤ -4.2
2 | GGAUCUUCUCGAUCUAACAAAAAAGACAAAUCUGCCACAAAGCUUGAGAGCAUCUUCGGAUGCAGAGGCGGCAGCCUUCGGUGGCGCGAUAGCGCCAAAGUUCUCAACUAUGACACGCAAAACGCGUGCUCCGGUGAAUGGAGUUUAUCAUG [C99A U134G] | -2.57
3 | GGAUCUUCUCGAUCUAACAAAAAAGACAAAUCUGCCACAAAGCUUGAGAGCAUCUUCGGAUGCAGAGGCGGCAGCCUUCGGUGGCGCGAUAGCGCCAAGGUUCUCAACUAUGACACGCAAAACGCGUGCUCCGUUGAAUGGAGUUGAUCAUG [C99G U146G] | -1.32
4 | GGAUCUUCUCGAUCUAACAAAAAAGACAAAUCUGCCACAAAGCUUGAGAGCAUCUUCGGAUGCAGAGGCGGCAGCCUUCGGUGGCGCGAUAGCGCCAAAGUUCUCAACUAUGACACGCACAACGCGUGCUCCGUUGAAUGGAGUUUAGCAUG [C99A A120C U148G] | ≤ -4.2
5 | GGAUCUUCUCGAUCUAACAAAAAAGACAAAUCUGCCACAAAGCUUGAGAGCAUCUUCGGAUGCAGAGGCGGCAGCCUUCGGUGGCGCGAUAGCGCCAUCGUUCUUAACUAUGACACGCAAAACGCGUGCUCCGUUGAAUGGAGUUUAUCAUG [A98U C105U] | 0.54
6 | GGAUCUUCUCGAUCUAACAAAAAAGACAAAUCUGCCACAAAGCUUGAGAGCAUCUUCGGAUGCAGAGGCGGCAGCCUUCGGUGGCGCGAUAGCGCCAAGGUUCUCAACUAUGACACGCAAAACGCGUGCUCCGCUGAAUGGAGUUUAUCAUG [C99G U134C] | -0.713
7 | GGAUCUUCUCGAUCUAACAAAAAAGACAAAUCUGCCACAAAGCUUGAGAGCAUCUUCGGAUGCAGAGGCGGCAGCCUUCGGUGGCGCGAUAGCGCCAUCGUUCUCAACUAUGACACGUAAAACGCGUGCUCCGUUGAAUGGAGGUUAUCAUG [A98U C118U U144G] | 0.244
8 | GGAUCUUCUCGAUCUAACAAAAAAGACAAAUCUGCCACAAAGCUUGAGAGCAUCUUCGGAUGCAGAGGCGGCAGCCUUCGGUGGCGCGAUAGCGCCAUCGUUCUCAUCUAUGACACGCAAAACGAGUGCUCCGUUGAAUGGAGUUUGUCAUG [A98U A107U C125A A147G] | ≤ -4.2
9 | GGAUCUUCUCGAUCUAACAAAAAAGACAAAUCUGCCACAAAGCUUGAGAGCAUCUUCGGAUGCAGAGGCGGCAGCCUUCGGUGGCGCGAUAGCGCCUACGUUCUCAACUAUGACACGCAAAACGCGUGCUCAGUUGAAUGGAGUUUAUCAUG [A97U C132A] | -2.65
10 | GGAUCUUCUCGAUCUAACAAAAAAGACAAAUCUGCCACAAAGCUUGAGAGCAUCUUCGGAUGCAGAGGCGGCAGCCUUCGGUGGCGCGAUAGCGCCAUCGUUCUCAACUAUGACACGCAAAACGCGUGCUCCGGUGAAUGGAGUUUAUCAUG [A98U U134G] | -2.65
11 | GGAUCUUCUCGAUCUAACAAAAAAGACAAAUCUGCCACAAAGCUUGAGAGCAUCUUCGGAUGCAGAGGCGGCAGCCUUCGGUGGCGCGAUAGCGCCAUCGUUCUCAACUAUGACACGCAUAACGCGUGCUCCGUUGAAUGGACUUUAUCAUG [A98U A120U G143C] | -2.39
12 | GGAUCUUCUCGAUCUAACAAAAAAGACAAAUCUGCCACAAAGCUUGAGAGCAUCUUCGGAUGCAGAGGCGGCAGCCUUCGGUGGCGCGAUAGCGCCGACGGUCUCAACUAUGACACGCAAAACGCGUGCUCCGUUGAAUGGAGUUUAUCAUG [A97G U101G] | 0.358
13 | GGAUCUUCUCGAUCUAACAAAAAAGACAAAUCUGCCACAAAGCUUGAGAGCAUCUUCGGAUGCAGAGGCGGCAGCCUUCGGUGGCGCGAUAGCGCCAAAGUUCUCAACUAUGACACGCAAAACGCGUGCUCCGUUGAAUGGAAUUUAUCAUG [C99A G143A] | -2.02
14 | GGAUCUUCUCGAUCUAACAAAAAAGACAAAUCUGCCACAAAGCUUGAGAGCAUCUUCGGAUGCAGAGGCGGCAGCCUUCGGUGGCGCGAUAGCGCCAUCGUUCUCAACUAUGACACGCAAAACGCGUGCUCCGUUGAAUGGAGUUUAUCCUG [A98U A150C] | -2.82
15 | GGAUCUUCUCGAUCUAACAAAAAAGACAAAUCUGCCACAAAGCUUGAGAGCAUCUUCGGAUGCAGAGGCGGCAGCCUUCGGUGGCGCGAUAGCGCCAGCGUUCUCAACUAUGACACGCAAAACGCGGGCUCCGUUGAAUGAAGUUUAUCAUG [A98G U127G G141A] | ≤ -4.2
16 | GGAUCUUCUCGAUCUAACAAAAAAGACAAAUCUGCCACAAAGCUUGAGAGCAUCUUCGGAUGCAGAGGCGGCAGCCUUCGGUGGCGCGAUAGCGCCAAAGUUCUCAACUAUGACACGCAAAACGCGUGCUCCGUUGAAUGGAGUUGAUCAUG [C99A U146G] | -1.41
17 | GGAUCUUCUCGAUCUAACAAAAAAGACAAAUCUGCCACAAAGCUUGAGAGCAUCUUCGGAUGCAGAGGCGGCAGCCUUCGGUGGCGCGAUAGCGCCAAAGUUCUCAACUAUGACACGCAAAACGCGUGCUCCGUUGAAUGGAGUUAAUCAUG [C99A U146A] | -1.15
18 | GGAUCUUCUCGAUCUAACAAAAAAGACAAAUCUGCCACAAAGCUUGAGAGCAUCUUCGGAUGCAGAGGCGGCAGCCUUCGGUGGCGCGAUAGCGCCAAGGUUCUCACCUAUGACACGCAAAACGCGUGCUCCGUUGAAUGGACUUUAUCAUG [C99G A107C G143C] | ≤ -4.2
19 | GGAUCUUCUCGAUCUAACAAAAAAGACAAAUCUGCCACAAAGCUUGAGAGCAUCUUCGGAUGCAGAGGCGGCAGCCUUCGGUGGCGCGAUAGCGCCAGCGUUCUCAACUAUGACACGCAAAACGCGCGCUCCGUUGAAUGGAGUUUAUCAUG [A98G U127C] | -3.01
